# According to patent US20260242478A1 (published 2026):
# Where no end group is shown, it is not given here.
# B1: Phage-3204 (peptide)
# peptide: LERLCQPSWMCTGF
# modifications: cysteine pairing not given here; also: fused to phage pIII, linker and order not given here
# notes: Peptide-180 library clone, tested as clonal phage supernatant; not shown: pIII filament protein of the bacteriophage, to which the peptide is fused
# B2: Phage-3205 (peptide)
# peptide: VVKICQPDWMCWGF
# modifications: cysteine pairing not given here; also: fused to phage pIII, linker and order not given here
# notes: as for B1
# B3: Phage-3206 (peptide)
# peptide: TVVKCVPEWMCEWL
# modifications: cysteine pairing not given here; also: fused to phage pIII, linker and order not given here
# notes: as for B1
# B4: Phage-3207 (peptide)
# peptide: HDPACVPSWMCFGF
# modifications: cysteine pairing not given here; also: fused to phage pIII, linker and order not given here
# notes: as for B1
# B5: Phage-3208 (peptide)
# peptide: PFAYCVPQWMCEAF
# modifications: cysteine pairing not given here; also: fused to phage pIII, linker and order not given here
# notes: as for B1
# B6: Phage-3209 (peptide)
# peptide: DHHICRPAWMCMGL
# modifications: cysteine pairing not given here; also: fused to phage pIII, linker and order not given here
# notes: as for B1
# B7: Phage-3210 (peptide)
# peptide: DTPKCIPQWMCVGF
# modifications: cysteine pairing not given here; also: fused to phage pIII, linker and order not given here
# notes: as for B1
# B8: Phage-3211 (peptide)
# peptide: PEAMCRPTWMCAGF
# modifications: cysteine pairing not given here; also: fused to phage pIII, linker and order not given here
# notes: as for B1
# B9: Phage-3212 (peptide)
# peptide: TVPLCKPLWMCYGF
# modifications: cysteine pairing not given here; also: fused to phage pIII, linker and order not given here
# notes: as for B1
# B10: Phage-3239 (peptide)
# peptide: DSVLCVPSWMCHGF
# modifications: cysteine pairing not given here; also: fused to phage pIII, fusion site not given here
# Target: T1, PSMA Fab
# T1 construct: also called Anti-PSMA Fab; 006 PSMA Fab
# Test: clonal phage ELISA; biotinylated PSMA Fab on neutravidin plate, wells pre-incubated with PSMA antigen as competitor; anti-M13 HRP detection;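 note: crude clonal phage supernatants added to antigen-treated wells without a wash, incubated briefly, then bound phage read out via horse radish–conjugated anti-M13 antibody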
# Method: (§1) Clonal phage were harvested as crude supernatants and screened via standard ELISAs. […] Prior to the addition of clonal phage. wells were incubated with blocking buffer and PSMA antigen or blocking buffer alone. Without washing or aspirating, clonal phage supernatants were then added to the wells and incubated for a short time. Wells were then washed followed by detection of bound phage using a horse radish conjugated anti-M13 antibody.
row,Binder,"Phage binding ELISA signal, Anti-PSMA Fab in presence of PSMA"
1,SIPKCMPEWMCIGL [Phage-3253],0.0587
2,YGALCVPAWMCSGF [Phage-3254],0.0866
3,IVPWCKPAWMCAVS [Phage-3255],0.12
4,DGFICRPEWMCQWL [Phage-3256],0.0653
5,LGNLCVPPWMCQGF [Phage-3257],0.241
6,QPGYCVPQWMCMGF [Phage-3258],0.0948
7,AEMRCIPQWMCSGL [Phage-3259],0.138

# Target: T2, PSMA Fab
# T2 construct: also called Anti-PSMA Fab; 006 PSMA Fab
# Test: phage binding ELISA; biotinylated PSMA Fab on neutravidin plate, clonal phage supernatant, anti-M13 HRP detection; blocking buffer alone;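 note: before phage were added, wells were preincubated with blocking buffer either containing PSMA antigen or without it, and phage were then added with no wash in between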
# Method: as §1
row,Binder,"Phage binding ELISA signal, Anti-PSMA Fab"
1,B1,1.98
2,B2,1.98
3,B3,1.98
4,B4,1.98
5,B5,1.98
6,B6,1.97
7,B7,1.97
8,B8,1.97
9,B9,1.97

# Target: T3, PSMA Fab (006 PSMA Fab)
# T3 construct: also called Anti-PSMA Fab; anti-PSMA Fab
# Test: phage ELISA; biotinylated PSMA Fab on neutravidin plate, clonal phage supernatant, anti-M13 HRP; blocking buffer alone
# Method: as §1
row,Binder,"Phage binding ELISA signal, Anti-PSMA Fab"
1,B10,1.94
2,GFRICEPEWMCVGF [Phage-3240],1.94
3,MVERCIPVWMCEGF [Phage-3241],1.94
4,ETSMCRPSWMCEGF [Phage-3242],1.94
5,VNVRCEPSWMCTGL [Phage-3243],1.94
6,LSAMCVPPWMCTGF [Phage-3244],1.94
7,NILRCEPMWMCTGF [Phage-3245],1.94
8,QDIVCRPSWMCHGF [Phage-3246],1.94
9,GLALCKPAWMCQGF [Phage-3247],1.93
10,VTHSCVPAWMCVGL [Phage-3248],1.93
11,MMHNCIPYWMCAGF [Phage-3249],1.93
12,NVPVCIPDWMCVGF [Phage-3250],1.93
13,GVIACKPHWMCTGF [Phage-3251],1.93
14,MPMHCVPSWMCEGF [Phage-3252],1.93

# Target: T1, PSMA Fab
# Test: clonal phage ELISA; biotinylated PSMA Fab on neutravidin plate; anti-M13 HRP detection
# Method: as §1
row,Binder,"Phage binding ELISA signal, Anti-PSMA Fab"
1,SIPKCMPEWMCIGL [Phage-3253],1.93
2,YGALCVPAWMCSGF [Phage-3254],1.93
3,IVPWCKPAWMCAVS [Phage-3255],1.93
4,DGFICRPEWMCQWL [Phage-3256],1.93
5,LGNLCVPPWMCQGF [Phage-3257],1.92
6,QPGYCVPQWMCMGF [Phage-3258],1.92
7,AEMRCIPQWMCSGL [Phage-3259],1.92

# Target: T3, PSMA Fab (006 PSMA Fab)
# Test: phage ELISA; biotinylated PSMA Fab on neutravidin plate pre-incubated with PSMA antigen as competitor, clonal phage supernatant, anti-M13 HRP
# Method: as §1
row,Binder,"Phage binding ELISA signal, Anti-PSMA Fab with PSMA antigen"
1,B10,0.0834
2,GFRICEPEWMCVGF [Phage-3240],0.0629
3,MVERCIPVWMCEGF [Phage-3241],0.0937
4,ETSMCRPSWMCEGF [Phage-3242],0.0918
5,VNVRCEPSWMCTGL [Phage-3243],0.0801
6,LSAMCVPPWMCTGF [Phage-3244],0.138
7,NILRCEPMWMCTGF [Phage-3245],0.0977
8,QDIVCRPSWMCHGF [Phage-3246],0.0762
9,GLALCKPAWMCQGF [Phage-3247],0.0706
10,VTHSCVPAWMCVGL [Phage-3248],0.091
11,MMHNCIPYWMCAGF [Phage-3249],0.101
12,NVPVCIPDWMCVGF [Phage-3250],0.0851
13,GVIACKPHWMCTGF [Phage-3251],0.085
14,MPMHCVPSWMCEGF [Phage-3252],0.0901

# Target: T2, PSMA Fab
# Test: phage binding ELISA; biotinylated PSMA Fab on neutravidin plate, wells pre-incubated with PSMA antigen as competitor, clonal phage supernatant, anti-M13 HRP detection
# Method: as §1
row,Binder,"Phage binding ELISA signal, Anti-PSMA Fab in presence of PSMA"
1,B1,0.0739
2,B2,0.0655
3,B3,0.0606
4,B4,0.0668
5,B5,0.0639
6,B6,0.0876
7,B7,0.0677
8,B8,0.0674
9,B9,0.184
